Assay results published in the DeepSol protein solubility set.

Assay: soluble on expression in E. coli; label from the status in PepcDB or PDB records

| Sequence | soluble on expression in E. coli |
| --- | --- |
| MHGVEFAPLERQHGSQVLALLRGTLLVPLPRLHQRLEEAYERDARLGLAQVALCRLAGNAEKVVGVLLARVATRRTCCAQVYIDAVAVDAVFQGQGIGSRLLLRVLTPCLPDGLEVREVFLHTPLQATELVAFYRSCGFESDDEVIDNYYPRRWMPQAQALVLRWRPPTAAQHQHEERKGPQDADVS | not soluble |
| MHHFSAGRSNSIGLRQSVSDKGIEIVNLLAPKVEMLGFDLLGAEYLLVPSGAILRLYIDIPFAMQPECMVSIDDCERVSREVSAYLDLEEPISGNYTLEVSSPGLDRRLFTLEQFARHHNHLVKVGLKLQQHGSRRLQGKIVRVEQVGGFVVLLVNGVELAVDFNNIDKARIVPDWSALGLAPLEKSKHDTKKMSQGSKKPSNESAARQAVRGVIR | not soluble |
| MHHHHHHENLYFQSNAMAKSRLLLSELLDQLSFALCIVRNDYVIVKVNEYFESRVIFDGETMQGKNILELFPESADYLKRKIDTALVIESSSFSSWEQKPHLLPFKSSRPVSGEEEQMYQNLEVIPIHSEDGTIEHVCLCVYDVTIQASQQQ | soluble |
| MHHHHHHSSGRENLYFQGSGTIYGWGHNHRGQLGGIEGAKVKVPTPCEALATLRPVQLIGGEQTLFAVTADGKLYATGYGAGGRLGIGGTESVSTPTLLESIQHVFIKKVAVNSGGKHCLALSSEGEVYSWGEAEDGKLGHGNRSPCDRPRVIESLRGIEVVDVAAGGAHSACVTAAGDLYTWGKGRYGRLGHSDSEDQLKPKLVEALQGHRVVDIACGSGDAQTLCLTDDDTVWSWGDGDYGKLGRGGSDGCKVPMKIDSLTGLGVVKVECGSQFSVALTKSGAVYTWGKGDYHRLGHGSDDHVRRPRQVQGLQGKKVIAIATGSLHCVCCTEDGEVYTWGDNDEGQLGDGTTNAIQRPRLVAALQGKKVNRVACGSAHTLAWSTSKP | soluble |
| MHHHHHHSSGVDLGTENLYFQSMKQYEHVTRDLNPEDFWEIIGELGDGAFGKVYKAQNKETSVLAAAKVIDTKSEEELEDYMVEIDILASCDHPNIVKLLDAFYYENNLWILIEFCAGGAVDAVMLELERPLTESQIQVVCKQTLDALNYLHDNKIIHRDLKAGNILFTLDGDIKLADFGVSAKNTRTIQRRDSFIGTPYWMAPEVVMCETSKDRPYDYKADVWSLGITLIEMAEIEPPHHELNPMRVLLKIAKSEPPTLAQPSRWSSNFKDFLKKCLEKNVDARWTTSQLLQHPFVTVDSNKPIRELIAEAKAEVTEEVEDGKE | soluble |
| MHHHHHHSSGVDLGTENLYFQSNAMKKEIASHLLEIGAVFLQPNDPFTWSSGMKSPIYCDNRLTLSYPKVRQTIAAGLEELIKEHFPTVEVIAGTATAGIAHAAWVSDRMDLPMCYVRSKAKGHGKGNQIEGKAEKGQKVVVVEDLISTGGSAITCVEALREAGCEVLGIVSIFTYELEAGKEKLEAANVASYSLSDYSALTEVAAEKGIIGQAETKKLQEWRKNPADEAWITA | soluble |
| MHHHHHHSSGVDLGTENLYFQSNAMTAPSQVLKIRRPDDWHVHLRDGDMLKTVVPYTSEIYGRAIVMPNLASPITTVDAAIAYRQRILDAVPAGHDFTPLMTCYLTDSLDADELERGFHEGVFTAAKLYPANATTNSSHGVTSVDAIMPVLERMEKLGIPLLVHGEVTHADVDIFDREARFIDTVMEPLRQRLTALKVVFEHITTKDAAQYVRDGNDYLAATITPQHLMFNRNDMLVGGIRPHLYCLPILKRNIHQQALRELVASGFTRAFLGTDSAPHSRHRKETSCGCAGCFNAPSALGSYAAVFEEMNALAHFEAFCSLNGPQFYGLPMNTGWVELVRDEQQIPGNIALADDSLVPFLAGETVRWSVKK | soluble |
| MHHRHLQVLRTDASGMPLEWIGYQEAAKLYYLEQVAYGCGSILFRLRGGINAKTGQRSRIEVNSIVATFGHANSGYKVDMGYVPPLNNAALFRRDGHICLYCGNLFRHSELSRDHIQPTSRGGSDTWNNVVTACKRCNNHKAGRTPEEAKMQLLAIPFTPTHAEYIYLQGRRVLADQMEFLKAHFPRKSPLHQRLSLEHHHHHH | not soluble |
| MHIAIIGAAGMVGRKLTQRLVKDGSLGGKPVEKFTLIDVFQPEAPAGFSGAVDARAADLSAPGEAEKLVEARPDVIFHLAAIVSGEAELDFDKGYRINLDGTRYLFDAIRIANGKDGYKPRVVFTSSIAVFGAPLPYPIPDEFHTTPLTSYGTQKAICELLLSDYSRRGFFDGIGIRLPTICIRPGKPNAAASGFFSNILREPLVGQEAVLPVPESIRHWHASPRSAVGFLIHGAMIDVEKVGPRRNLSMPGLSATVGEQIEALRKVAGEKAVALIRREPNEMIMRMCEGWAPGFEAKRARELGFTAESSFEEIIQVHIEDELGGSLK | soluble |
| MHISFIIPAFNEEQLIEPCLRSITDAVAANRSYGYTSEIIVVDNNSTDATAQLAKQAGAQVVFEPVNHIARARTAGAGAARGDWLVFMDADCLLNAGLVGDIFELIRQGRHIGAGSTLYMPGQPWWAEMLLRIWTFLSVQLGWAAGALIVCNAAAFREVGGFDLTLYAAEEIDLSQKLKKYGRKRKLKFAILNAHPLETSSRKTQLYSGWEIVGQFLRLVLSPLGTLRNKKKLPMWYDGRRLEHHHHHH | soluble |
| MHIYRYEENPLITPEDVPPHHDGFEVIGAFNAGVARFQGEVLLLLRVAERPVSDDPNIVKAPVWNPKTGKVDVYEFRKDDPRYDFSDPRVIREAGAERFAYLTSLSYLRLARSQDGRRFVIDDRPFVYPSNELETFGIEDPRITYIDGTYYIYFSAVSPKGVGEAMVSTTDFRTVTHHGMIFAPENKDVLIFPEKINGKYYALHRPVPRSNGRPEVWIAESENLLHWGNHRFLFGLREGKWDSARIGGGAVPIKTEYGWLELYHGASDDHRYCMGAVLLDLNDPAKVIARSERPLVEPEADYEVNGFFGRVVFSCGALVDGDIVKMYYGAADTSMACVELKLDEILDSLVKV | soluble |
| MHLYDKRPGGGASFSQILGQAKNRQGIFFNTTFAVMGHVAKASGRVTETDIRIATLLMDQMRLTGDARKEAQQAFREGKEPDFDLCSSLQAFRAVTQGRQELVQMFIEIQIQTALSDGELDAAEHAILMTVAQELGYGRLEHHHHHH | not soluble |
| MHNLANLYRTGWPGGVEKDTQKALDLYQKMIDLDVPQGFYDMGAMIGNRAGVKNPATDGLTFLDKAASLGNPPALTELGKFYIYVAKKKDLGLAYTHCAASQGYAPASYELGAYYKIVEHNFPKALVYYQVSVSQGGKSAAFFLSRVFGSETPPASAMWYAPDEKLREAYYSIYKKLEADPLEHHHHHH | not soluble |
| MHPASGVMVTVETPETDTVFNRCRPAADGDIVVPHGSTAVLGTTSVDVDDADEFATPDAAVERVIDECSALLPAASDAPIRTTYWGVRPLYSPSDYGDDARAISRGFYVLDHADRDDTAGLTTVVGGKLTTHRLMAEATADLVADRLGVTEPSRTANEPLPGHDDPERLDALVDTFDAASPADADARLEHHHHHH | not soluble |
| MHRLKYLTGYPPQLTAQVAHLVTENRLGEVLVQRYPTVHDVRTDRALYDFTVAVKNEFMRTAQPLSRVLYDGKIHAIKNALGTHTFVSRVQGGKLKAKHEIRIASIFREAPLEFLKMIVVHELAHLKEKEHNKAFYQLCEYMEPRYHQLEFDTRLFLTQVEIAGSPYLPLEHHHHHH | soluble |
| MHRPITAGHTTSRLILDQLKQISRTPSESSVQSALSQQASMSSPVLERSKSAPALLTAAQRTMLAQVGACNSHLTSDENMAINELRLHKPRLPKDTWFFTDPNKDPDDVVTYTLGKQLQAEGFVHITDVVATLGDAEVRSQRAEMAKGVFNKLGLHDVHVSRGRDYAMNSLQSKEHAKFLLEGHALRAGPGEIHRDSLQDMSRRLARAPHGVGIVVIAGMSDINALITTCPDMVRERVDDITIMGGVEPLKDADGFVQPDARAYNNATDMDAARSLYRKAQELGIPLRIVTKEAAYKTAVSPSFYEGIAGSGHPVGHYLRDVQKSALKGLWEGIQAGLLPGLDDSWFFRTFMPNAQIEAAQLDKNKESSFEDIWPKVTKLNLYDPLTLLASVPGAAKLLFKPKAIHTEGFGVVEQVGPDDVTHPEKAKLLMSALAKSALVQSTVAPD | not soluble |
| MHRTYSLRNSRAPTASQLQNPPPPPSTTKGRFFGKGGLAYSFRRSAAGAFGPELSRKLSQLVKIEKNVLRSMELTANERRDAAKQLSIWGLENDDDVSDITDKLGVLIYEVSELDDQFIDRYDQYRLTLKSIRDIEGSVQPSRDRKDKITDKIAYLKYKDPQSPKIEVLEQELVRAEAESLVAEAQLSNITRSKLRAAFNYQFDSIIEHSEKIALIAGYGKALLELLDDSPVTPGETRPAYDGYEASKQIIIDAESALNEWTLDSAQVKPTLSFKQDYEDFEPEEGEEEEEEDGQGRWSEDEQEDGQIEEPEQEEEGAVEEHEQVGHQQSESLPQQTTA | soluble |
| MHSSILLLLSFASITTACPGLLNIFGGAGGGGCGGCGGGCGGGCGCAPPPPPCCGGGCGGCGRKKRSLPEKPTFVGIADSGDDVMCNTPALKKIILENIQTTASDSSKAINTVLESRQIQRFVVVCSEKPFVFTFRADAAYCGATKNGHNCHAFAM | not soluble |
| MHTIELRNISKVIKNNIVLSNINYKFESGKVYGLKGRNGSGKSMLLRTISGLIRPTSGSVIIDGKELHKEIESPGNIGIVVENAGLYPDFTGFYNLKYLAGIMGQISDDEIINAIKRVGLDLYDKKIVKKYSLGMKQKIVIAQAIMEKPDFLLLDEPTNALDESGVKLLREIVQEEATRGALVIIASHNQEDIELLCDKVIIMADGKISDEYVNSREMNLCSEETQ | not soluble |
| MHYSDHFHKVCIASELNEFTDAFRIIYSWLFSLKLLEPKFMDKDSIFCRLFTSIHFRLKYIAAPHYEERKRHLETLEKDGVPKAYIREYAEQQLNVIKQFKLEQKPIGHSFSTDEIIDAARCFGELSNGISVRSRYQRFRAVCMSWFSFMEVITGKDKSYPGSNYVDMFCEWHLTSKGSSVGATVHICQELDRFFAYINSKSVTINLLTAACIDGYIETYQSACFARKTVASKVSILRTFLRYLYNRSIIKTDMSSYLISPRIYTCEILSVSPNENDLNRISHFYDGNTPSAIRNKAILLLLIEYGMRSGGSYRFKT | not soluble |
| MIAKIIKGTSFSGVLAYILGKQEGKARILYADGVRANAQASDIANDFALQASMRPNVKKPVCHTILSFSAEDTERLSDKVMTDLAKEYLQRMGYADTQYLIVRHLDREHPHLHICINRVNNEGKTISDSNEKYCSTKVCKELTEANLLKWGEGKEAVKRHRLRGNDQLRYAIFDAIKAALPKCTNWQELTSELQKRGIEVQFKTKGQTEKVEGVIFSMDGVSFSGSHIDRSCSYSKLSFALEQNAKHALSLPALPKEDGFIEELSEAIEKLGENLFDSNAPAVDVAELIFQRKLRNQANKKLKRRRL | not soluble |
| MIASIFGKITFVGKRKIIVEANCISYWFNVKENHSFEKNLEKPRQVFCQIIKRMVTNQILEEGFA | not soluble |
| MIDMTSKKRAVAPRDLYRRWPWANTAGMEPDMVRLQIFVQNLERAVIGDGRMRPVTSPSEFCDNIGISHATLGRILRGEVIPRFDTIDKLERGVGRALFPPFEDVRVRGNKG | not soluble |
| MIDQLQVGPNPLVGLLDDVHMLEVQRDSGVANILNSPEIKKRHYNATRKRVNRRDSTIVEPEAKSRKMDENWTGVGTESESTDCVETTETRFTWFKAQTKHPGLAKSLQSEVTKVGLSIVDLQHCTLPCKSINYNFHFYSFKGLSREDSKKFEEMIDQNFVNNFCAENLLNKEDKNFFYYDLGYKQVVSLSMLATYFKIKNEQPLLHPLKMLLNKQLLKKAFEDADTHVELKKYLSKNGYSKLVQWMEEMTQ | not soluble |
